Data taken from patent publication US20250064934A1 (CENTURY THERAPEUTICS, published 2025).

T1: monomeric CD22 (Acro Biosystems) (UniProt P20273 20-687)
T1 construct: Bought protein; also called CD22 antigen; soluble CD22 protein
T1 sequence (looked up): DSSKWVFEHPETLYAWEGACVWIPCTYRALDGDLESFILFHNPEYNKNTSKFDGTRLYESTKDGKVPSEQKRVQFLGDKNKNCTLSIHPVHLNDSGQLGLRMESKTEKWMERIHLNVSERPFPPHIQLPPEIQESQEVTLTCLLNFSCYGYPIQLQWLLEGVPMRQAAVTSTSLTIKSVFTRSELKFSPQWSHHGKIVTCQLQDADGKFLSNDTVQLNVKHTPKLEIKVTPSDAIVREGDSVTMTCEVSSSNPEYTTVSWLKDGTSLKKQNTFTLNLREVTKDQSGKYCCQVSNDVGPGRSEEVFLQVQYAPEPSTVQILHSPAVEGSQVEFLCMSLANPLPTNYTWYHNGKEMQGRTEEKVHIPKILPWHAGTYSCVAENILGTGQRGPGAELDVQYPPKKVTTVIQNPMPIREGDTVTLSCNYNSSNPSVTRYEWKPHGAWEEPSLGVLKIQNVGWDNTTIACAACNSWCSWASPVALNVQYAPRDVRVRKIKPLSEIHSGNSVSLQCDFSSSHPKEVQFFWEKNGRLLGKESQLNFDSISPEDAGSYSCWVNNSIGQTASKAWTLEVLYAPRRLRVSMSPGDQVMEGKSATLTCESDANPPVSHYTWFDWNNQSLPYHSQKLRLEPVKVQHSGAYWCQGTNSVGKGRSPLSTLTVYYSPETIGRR

T2: CD22 expressed on the cell surface (Raji, Daudi, CHO-CD22 and other CD22+ cells) (UniProt P20273 20-847, limits assumed)
T2 construct: whole, on cells; also called CD22 positive Raji cells; CD22+ Raji cells
T2 sequence (looked up): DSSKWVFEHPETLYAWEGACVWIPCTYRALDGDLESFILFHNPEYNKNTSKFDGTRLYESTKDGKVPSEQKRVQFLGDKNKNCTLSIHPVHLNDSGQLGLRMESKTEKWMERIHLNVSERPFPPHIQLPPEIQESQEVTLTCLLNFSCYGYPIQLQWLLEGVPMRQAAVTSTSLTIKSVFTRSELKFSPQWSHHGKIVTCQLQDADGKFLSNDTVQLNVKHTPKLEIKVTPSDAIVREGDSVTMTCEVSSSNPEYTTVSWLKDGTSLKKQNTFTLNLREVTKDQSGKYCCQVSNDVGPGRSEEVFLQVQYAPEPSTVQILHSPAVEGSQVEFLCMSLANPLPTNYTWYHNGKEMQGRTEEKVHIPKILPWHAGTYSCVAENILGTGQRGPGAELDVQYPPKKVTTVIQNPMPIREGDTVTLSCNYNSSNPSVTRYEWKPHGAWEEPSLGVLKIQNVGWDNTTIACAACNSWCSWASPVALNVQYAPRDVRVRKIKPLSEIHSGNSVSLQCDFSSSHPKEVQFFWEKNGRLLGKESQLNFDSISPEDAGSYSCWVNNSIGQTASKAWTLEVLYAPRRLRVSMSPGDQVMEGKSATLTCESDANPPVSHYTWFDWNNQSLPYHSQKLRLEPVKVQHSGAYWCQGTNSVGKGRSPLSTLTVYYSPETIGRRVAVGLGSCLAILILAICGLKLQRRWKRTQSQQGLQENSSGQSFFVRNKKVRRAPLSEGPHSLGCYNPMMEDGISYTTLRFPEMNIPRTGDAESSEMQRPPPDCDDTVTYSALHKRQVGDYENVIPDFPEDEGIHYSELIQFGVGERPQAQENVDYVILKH


Experiments:
[1] = target: T1, monomeric CD22 (Acro Biosystems); test: BLI (ForteBio Octet Red), VHH-Fc captured on anti-human IgG Fc sensor, monomeric CD22 at 250 nM
Experimental: (§1) VHH-Fc fusion proteins were assessed for affinity against monomeric CD22 (Acro Biosystems) using the ForteBio Octet Red BLI instrument. VHH-Fc proteins were captured onto an anti-human IgG Fc sensor at 50 nM. Sensor tips were quenched with human IgG Fc protein at 100 nM, then CD22 antigen was added at 250 nM to assess binding kinetics. Association was examined for 600 seconds and dissociation was examined for 600 seconds, allowing for calculation of Kon, Kdis and KD.

[2] = target: T2, CD22 expressed on the cell surface …; test: flow cytometry on Raji cells, PE-labeled anti-human IgG Fc detection
Experimental: FIGS. 1A-C show results of VHH-Fc fusion proteins that were examined by flow cytometry for CD22 cellular binding in Raji cells. […] No binding was seen to Raji CD22 knock-out cells. B) PROT265 and PROT810 (an affinity matured variant of PROT265) bind to Raji cells, with PROT810 showing improved binding relative to PROT265.
(§2) VHH-Fc proteins were tested for binding to CD22 expressed on the cell surface. VHH-Fc proteins were serially diluted and added to Raji cells and incubated at 4 C for 30 minutes. Cells were washed once in BD staining buffer, BSA (BD Pharmingen), then PE-labeled anti-human IgG Fc (Jackson Immnoresearch) was added to detect VHH-Fc cell binding and incubated at 4 C for 30 minutes. Cells were washed once, then resuspended in staining buffer with 0.1% pluronic acid and run through a flow cytometer to detect the fluorescent labeling of the VHH-Fc cells.

[3] = target: T2, CD22 expressed on the cell surface …; test: cell-based or functional assay
[4] = target: T1, monomeric CD22 (Acro Biosystems); test: protein affinity of VHH-IgG1 Fc fusions (summary sentence, method not named there); before affinity maturation
Experimental: as §1

[5] = target: T2, CD22 expressed on the cell surface …; test: flow cytometry on Raji cells, serially diluted VHH-Fc, detection with PE anti-human IgG Fc, % positive cells
Experimental: as §2

[6] = target: T1, monomeric CD22 (Acro Biosystems); test: protein affinity of VHH-IgG1 Fc fusions (summary sentence, method not named there); after affinity maturation of CDR3
Experimental: as §1
(§3) The D04 clone was affinity matured by scanning mutagenesis of the CDRs and phage display selections for higher affinity clones. Variants were isolated and expressed as VHH-Fc fusions for affinity assessment.

[7] = target: T1, monomeric CD22 (Acro Biosystems); test: BLI affinity assessment of VHH-Fc fusions
Experimental: as §1, §3

Binder | Kd [1] [nM] | koff [1] [s⁻¹] | kon [1] [M⁻¹ s⁻¹] | EC50 [2] [nM] | Raji cell killing by CAR-T cells (flow cytometry, 48 hours) [3] [%] | Kd [4] [nM] | EC50 (read off the curve) [5] [nM] | Kd [6] [nM] | fold improvement of affinity over the D04 clone [7] [fold]
PROT740 (E04) VHH-Fc fusion protein (Fc fusion, VHH fused to the human IgG1 Fc domain; not shown: human IgG1 Fc domain) EVQLLESGGGLVQPGGSLRLSCAASGFTSSSYVMGWYRQAPGKEREFVSSISTGGDAYYADSVKGRFTISRDNSKNTLYLQMNSLRAEDTAVYYCAADVWYYHGGAYDYWGQGTQVTVSS | 23.3 | 0.000536 | 23000 | ~2 |  |  |  |  | 
PROT739 (A01) VHH-Fc fusion protein (Fc fusion, VHH fused to the human IgG1 Fc domain; not shown: human IgG1 Fc domain) EVQLLESGGGLVQPGGSLRLSCAASGLTSYSYAMGWYRQAPGKEREFVSAISSGGSAYYADSVKGRFTISRDNSKNTLYLQMNSLRAEDTAVYYCAVGPYYGFRAVTEADYWGQGTQVTVSS | 96.1 | 0.0102 | 106000 | ~2 |  |  |  |  | 
tandem VHH CAR E04-D04_AM_D11 (P1738) (bispecific antibody, part only; not given: which CAR backbone was used, part only) chain, part: EVQLLESGGGLVQPGGSLRLSCAASGFTSSSYVMGWYRQAPGKEREFVSSISTGGDAYYADSVKGRFTISRDNSKNTLYLQMNSLRAEDTAVYYCAADVWYYHGGAYDYWGQGTQVTVSSGSTSGSGKPGSGEGSTKGQVQLVESGGGLVQAGGSLRLSCAASGSEFTGYPMGWFRQAPGKEREFVAGSVGIGGSTNYADSVKGRFTISRDNAKNTVYLQMNSLKPEDTAVYYCAADKDYYKPYSRYRTAIRYDTWGQGTQVTVSS |  |  |  |  | < 20 |  |  |  | 
PROT265 (D04) VHH-Fc fusion protein (Fc fusion, also called CD22_D04; not shown: human IgG1 Fc domain) QVQLVESGGGLVQAGGSLRLSCAASGSEFTGYPMGWFRQAPGKEREFVAGSVGIGGSTNYADSVKGRFTISRDNAKNTVYLQMNSLKPEDTAVYYCAADKDYYKPYSRYRTVIRYETWGQGTQVTVSS | 31.9 | 0.00257 | 80800 |  |  | 30 | ~1 |  | 
PROT810 (D04-AM-D11) VHH-Fc fusion protein (Fc fusion, I took that entry to be D04-AM-D11 on the strength of the name; also called DO4-D11-CD22 VHH; not shown: human IgG1 Fc domain) QVQLVESGGGLVQAGGSLRLSCAASGSEFTGYPMGWFRQAPGKEREFVAGSVGIGGSTNYADSVKGRFTISRDNAKNTVYLQMNSLKPEDTAVYYCAADKDYYKPYSRYRTAIRYDTWGQGTQVTVSS | 6.97 | 0.000657 | 94300 |  |  |  |  | 5 | 5
tandem VHH CAR D04_AM_D11-E04 (P1730) (bispecific antibody, part only; not given: which CAR backbone was used, part only) chain, part: QVQLVESGGGLVQAGGSLRLSCAASGSEFTGYPMGWFRQAPGKEREFVAGSVGIGGSTNYADSVKGRFTISRDNAKNTVYLQMNSLKPEDTAVYYCAADKDYYKPYSRYRTAIRYDTWGQGTQVTVSSGSTSGSGKPGSGEGSTKGEVQLLESGGGLVQPGGSLRLSCAASGFTSSSYVMGWYRQAPGKEREFVSSISTGGDAYYADSVKGRFTISRDNSKNTLYLQMNSLRAEDTAVYYCAADVWYYHGGAYDYWGQGTQVTVSS |  |  |  |  | 40 |  |  |  | 
